The assay addresses T1, full-length hGPRASP2, purified recombinant (human, UniProt Q96D09 1-838).
T1 construct: human G protein-coupled receptor associated sorting protein 2 (GPRASP2), full length, cloned into pETM-11; source: E. coli Rosetta2 (DE3), purified (IMAC, TEV cleavage, second IMAC, SEC on Superdex 200); not shown: His6, N-terminal, cleaved
T1 sequence (looked up): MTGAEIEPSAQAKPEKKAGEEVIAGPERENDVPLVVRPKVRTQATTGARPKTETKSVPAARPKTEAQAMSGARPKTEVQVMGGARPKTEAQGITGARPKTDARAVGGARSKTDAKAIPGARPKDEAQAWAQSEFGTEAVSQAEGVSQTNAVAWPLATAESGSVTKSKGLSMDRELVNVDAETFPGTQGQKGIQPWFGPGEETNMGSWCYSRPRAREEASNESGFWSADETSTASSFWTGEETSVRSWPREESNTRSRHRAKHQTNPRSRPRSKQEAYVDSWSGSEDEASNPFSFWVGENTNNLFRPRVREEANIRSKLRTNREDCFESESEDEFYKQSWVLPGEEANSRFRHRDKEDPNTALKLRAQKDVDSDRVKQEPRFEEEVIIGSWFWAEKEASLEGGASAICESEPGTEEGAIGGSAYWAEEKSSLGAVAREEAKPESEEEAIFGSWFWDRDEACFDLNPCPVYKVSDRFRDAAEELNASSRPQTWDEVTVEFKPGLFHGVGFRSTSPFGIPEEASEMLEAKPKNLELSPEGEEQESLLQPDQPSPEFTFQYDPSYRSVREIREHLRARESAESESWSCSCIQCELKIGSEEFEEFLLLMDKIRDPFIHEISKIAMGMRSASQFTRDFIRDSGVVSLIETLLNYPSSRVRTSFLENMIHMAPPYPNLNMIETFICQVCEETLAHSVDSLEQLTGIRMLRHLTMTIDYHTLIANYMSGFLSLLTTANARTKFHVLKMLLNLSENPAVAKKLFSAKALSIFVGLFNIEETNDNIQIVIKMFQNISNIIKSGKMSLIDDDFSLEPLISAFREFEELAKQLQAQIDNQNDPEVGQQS
The assay can be described thus: NMR titration; 1D 1H NMR (…), 800 MHz, 298 K; 100 μM peptide before and after addition of hGPRASP2 to 4 μM (1:25 hGPRASP2:peptide); 50 mM Tris.HCl pH 8, 300 mM NaCl, 0.01% 1-thioglycerol; line broadening and loss of intensity of the peptide signals. The following applies: both partners purified.

B1: hSMO-WT peptide (human SMO aa 539-552) (peptide, UniProt Q99835 539-552, looked up)
peptide: KATLLIWRRTWCRL
notes: source: synthetic peptide (PSL GmbH)
B1: the binding result was “binds”.

Source of the values: paper PMC4763541, “Pitchfork and Gprasp2 Target Smoothened to the Primary Cilium for Hedgehog Pathway Activation” (PLoS ONE, 2016).
